The test system of the assay is HCoV-OC43 gRNA and sgRNA. The assay is classed as binding. To be noted: for target (unweighted spectral count): OC43 Probe II, infected cells; for target (unweighted spectral count) / target (unweighted spectral count, OC43 Probe II capture): tested against no-probe control; for target (unweighted spectral count, OC43 Probe II capture): FDR<10%; for target (unweighted spectral count, OC43 Probe II) / background (unweighted spectral count, no-probe control): type n_48_v, 48 hpi; for target (unweighted spectral count, OC43 Probe II): OC43 Probe II capture on infected cells; for background (unweighted spectral count, no-probe control): no-probe control on infected cells.

Ten molecules from patent publication US20230407373A1 (priority 2020, published 2023) can be followed below.

Like-named read-outs stand apart in the source and are kept apart here.

B1: TRMT10C (protein, UniProt Q7L0Y3 40-403, looked up)
tRNA methyltransferase 10 …: MSSKIPAVTYPKNESTPPSEELELDKWKTTMKSSVQEECVSTISSSKDEDPLAATREFIEMWRLLGREVPEHITEEELKTLMECVSNTAKKKYLKYLYTKEKVKKARQIKKEMKAAAREEAKNIKLLETTEEDKQKNFLFLRLWDRNMDIAMGWKGAQAMQFGQPLVFDMAYENYMKRKELQNTVSQLLESEGWNRRNVDPFHIYFCNLKIDGALHRELVKRYQEKWDKLLLTSTEKSHVDLFPKDSIIYLTADSPNVMTTFRHDKVYVIGSFVDKSMQPGTSLAKAKRLNLATECLPLDKYLQWEIGNKNLTLDQMIRILLCLKNNGNWQEALQFVPKRKHTGFLEISQHSQEFINRLKKAKT
Regarding B1, the “target (unweighted spectral count)” value (12 hpi (type n_12_v)) turned out to be 6.

B2: SLC2A1 (protein, UniProt P11166 1-492, looked up)
Solute carrier family 2, …: MEPSSKKLTGRLMLAVGGAVLGSLQFGYNTGVINAPQKVIEEFYNQTWVHRYGESILPTTLTTLWSLSVAIFSVGGMIGSFSVGLFVNRFGRRNSMLMMNLLAFVSAVLMGFSKLGKSFEMLILGRFIIGVYCGLTTGFVPMYVGEVSPTALRGALGTLHQLGIVVGILIAQVFGLDSIMGNKDLWPLLLSIIFIPALLQCIVLPFCPESPRFLLINRNEENRAKSVLKKLRGTADVTHDLQEMKEESRQMMREKKVTILELFRSPAYRQPILIAVVLQLSQQLSGINAVFYYSTSIFEKAGVQQPVYATIGSGIVNTAFTVVSLFVVERAGRRTLHLIGLAGMAGCAILMTIALALLEQLPWMSYLSIVAIFGFVAFFEVGPGPIPWFIVAELFSQGPRPAAIAVAGFSNWTSNFIVGMCFQYVEQLCGPYVFIIFTVLLVLFFIFTYFKVPETKGRTFDEIASGFRQGGASQSDKTPEELFHPLGADSQV
As for B2, the “target (unweighted spectral count)” value (12 hpi (type n_12_v)) stood at 6.

B3: SLC25A5 (protein, UniProt P05141 1-298, looked up)
ADP/ATP translocase 2: MTDAAVSFAKDFLAGGVAAAISKTAVAPIERVKLLLQVQHASKQITADKQYKGIIDCVVRIPKEQGVLSFWRGNLANVIRYFPTQALNFAFKDKYKQIFLGGVDKRTQFWLYFAGNLASGGAAGATSLCFVYPLDFARTRLAADVGKAGAEREFRGLGDCLVKIYKSDGIKGLYQGFNVSVQGIIIYRAAYFGIYDTAKGMLPDPKNTHIVISWMIAQTVTAVAGLTSYPFDTVRRRMMMQSGRKGTDIMYTGTLDCWRKIARDEGGKAFFKGAWSNVLRGMGGAFVLVLYDEIKKYT
Regarding B3, the “target (unweighted spectral count)” value (12 hpi (type n_12_v)) is given as 6.

B4: RBM39 (protein, UniProt Q14498 2-530, looked up)
RNA-binding protein 39: ADDIDIEAMLEAPYKKDENKLSSANGHEERSKKRKKSKSRSRSHERKRSKSKERKRSRDRERKKSKSRERKRSRSKERRRSRSRSRDRRFRGRYRSPYSGPKFNSAIRGKIGLPHSIKLSRRRSRSKSPFRKDKSPVREPIDNLTPEERDARTVFCMQLAARIRPRDLEEFFSTVGKVRDVRMISDRNSRRSKGIAYVEFVDVSSVPLAIGLTGQRVLGVPIIVQASQAEKNRAAAMANNLQKGSAGPMRLYVGSLHFNITEDMLRGIFEPFGRIESIQLMMDSETGRSKGYGFITFSDSECAKKALEQLNGFELAGRPMKVGHVTERTDASSASSFLDSDELERTGIDLGTTGRLQLMARLAEGTGLQIPPAAQQALQMSGSLAFGAVAEFSFVIDLQTRLSQQTEASALAAAASVQPLATQCFQLSNMFNPQTEEEVGWDTEIKDDVIEECNKHGGVIHIYVDKNSAQGNVYVKCPSIAAAIAAVNALHGRWFAGKMITAAYVPLPTYHNLFPDSMTATQLLVPSRR
As for B4, the “target (unweighted spectral count)” value stood at 6 (12 hpi (type n_12_v)) and 10 (24 hpi (type n_24_v)).

B5: DSG1 (protein, UniProt Q02413 50-1049, looked up)
Desmoglein-1: EWIKFAAACREGEDNSKRNPIAKIHSDCAANQQVTYRISGVGIDQPPYGIFVINQKTGEINITSIVDREVTPFFIIYCRALNSMGQDLERPLELRVRVLDINDNPPVFSMATFAGQIEENSNANTLVMILNATDADEPNNLNSKIAFKIIRQEPSDSPMFIINRNTGEIRTMNNFLDREQYGQYALAVRGSDRDGGADGMSAECECNIKILDVNDNIPYMEQSSYTIEIQENTLNSNLLEIRVIDLDEEFSANWMAVIFFISGNEGNWFEIEMNERTNVGILKVVKPLDYEAMQSLQLSIGVRNKAEFHHSIMSQYKLKASAISVTVLNVIEGPVFRPGSKTYVVTGNMGSNDKVGDFVATDLDTGRPSTTVRYVMGNNPADLLAVDSRTGKLTLKNKVTKEQYNMLGGKYQGTILSIDDNLQRTCTGTININIQSFGNDDRTNTEPNTKITTNTGRQESTSSTNYDTSTTSTDSSQVYSSEPGNGAKDLLSDNVHFGPAGIGLLIMGFLVLGLVPFLMICCDCGGAPRSAAGFEPVPECSDGAIHSWAVEGPQPEPRDITTVIPQIPPDNANIIECIDNSGVYTNEYGGREMQDLGGGERMTGFELTEGVKTSGMPEICQEYSGTLRRNSMRECREGGLNMNFMESYFCQKAYAYADEDEGRPSNDCLLIYDIEGVGSPAGSVGCCSFIGEDLDDSFLDTLGPKFKKLADISLGKESYPDLDPSWPPQSTEPVCLPQETEPVVSGHPPISPHFGTTTVISESTYPSGPGVLHPKPILDPLGYGNVTVTESYTTSDTLKPSVHVHDNRPASNVVVTERVVGPISGADLHGMLEMPDLRDGSNVIVTERVIAPSSSLPTSLTIHHPRESSNVVVTERVIQPTSGMIGSLSMHPELANAHNVIVTERVVSGAGVTGISGTTGISGGIGSSGLVGTSMGAGSGALSGAGISGGGIGLSSLGGTASIGHMRSSSDHHFNQTIGSASPSTARSRITKYSTVQYSK
As for B5, the “target (unweighted spectral count)” value (24 hpi (type n_24_v)) is on record as 8.

B6: JUP (protein, UniProt P14923 1-745, looked up)
Junction plakoglobin: MEVMNLMEQPIKVTEWQQTYTYDSGIHSGANTCVPSVSSKGIMEEDEACGRQYTLKKTTTYTQGVPPSQGDLEYQMSTTARAKRVREAMCPGVSGEDSSLLLATQVEGQATNLQRLAEPSQLLKSAIVHLINYQDDAELATRALPELTKLLNDEDPVVVTKAAMIVNQLSKKEASRRALMGSPQLVAAVVRTMQNTSDLDTARCTTSILHNLSHHREGLLAIFKSGGIPALVRMLSSPVESVLFYAITTLHNLLLYQEGAKMAVRLADGLQKMVPLLNKNNPKFLAITTDCLQLLAYGNQESKLIILANGGPQALVQIMRNYSYEKLLWTTSRVLKVLSVCPSNKPAIVEAGGMQALGKHLTSNSPRLVQNCLWTLRNLSDVATKQEGLESVLKILVNQLSVDDVNVLTCATGTLSNLTCNNSKNKTLVTQNSGVEALIHAILRAGDKDDITEPAVCALRHLTSRHPEAEMAQNSVRLNYGIPAIVKLLNQPNQWPLVKATIGLIRNLALCPANHAPLQEAAVIPRLVQLLVKAHQDAQRHVAAGTQQPYTDGVRMEEIVEGCTGALHILARDPMNRMEIFRLNTIPLFVQLLYSSVENIQRVAAGVLCELAQDKEAADAIDAEGASAPLMELLHSRNEGTATYAAAVLFRISEDKNPDYRKRVSVELTNSLFKHDPAAWEAAQSMIPINEPYGDDMDATYRPMYSSDVPLDPLEMHMDMDGDYPIDTYSDGLRPPYPTADHMLA
As to B6, for the setting “24 hpi (type n_24_v)”, the “target (unweighted spectral count)” value is given as 11.

B7: MTPAP (protein, UniProt Q9NVV4 38-582, looked up)
Poly(A) RNA polymerase, …: KDLRRDEQPSGSVETGFEDKIPKRRFSEMQNERREQAQRTVLIHCPEKISENKFLKYLSQFGPINNHFFYESFGLYAVVEFCQKESIGSLQNGTHTPSTAMETAIPFRSRFFNLKLKNQTSERSRVRSSNQLPRSNKQLFELLCYAESIDDQLNTLLKEFQLTEENTKLRYLTCSLIEDMAAAYFPDCIVRPFGSSVNTFGKLGCDLDMFLDLDETRNLSAHKISGNFLMEFQVKNVPSERIATQKILSVLGECLDHFGPGCVGVQKILNARCPLVRFSHQASGFQCDLTTNNRIALTSSELLYIYGALDSRVRALVFSVRCWARAHSLTSSIPGAWITNFSLTMMVIFFLQRRSPPILPTLDSLKTLADAEDKCVIEGNNCTFVRDLSRIKPSQNTETLELLLKEFFEYFGNFAFDKNSINIRQGREQNKPDSSPLYIQNPFETSLNISKNVSQSQLQKFVDLARESAWILQQEDTDRPSISSNRPWGLVSLLLPSAPNRKSFTKKKSNKFAIETVKNLLESLKGNRTENFTKTSGKRTISTQT
In the case of B7, where the note is “24 hpi, type n_24_v”, the “target (unweighted spectral count, OC43 Probe II capture)” value is recorded as 4. Also, under “12 hpi (type n_12_v)”, the “target (unweighted spectral count)” value is on record as 4.

B8: HNRNPA2B1 (protein, UniProt P22626 1-353, looked up)
Heterogeneous nuclear …: MEKTLETVPLERKKREKEQFRKLFIGGLSFETTEESLRNYYEQWGKLTDCVVMRDPASKRSRGFGFVTFSSMAEVDAAMAARPHSIDGRVVEPKRAVAREESGKPGAHVTVKKLFVGGIKEDTEEHHLRDYFEEYGKIDTIEIITDRQSGKKRGFGFVTFDDHDPVDKIVLQKYHTINGHNAEVRKALSRQEMQEVQSSRSGRGGNFGFGDSRGGGGNFGPGPGSNFRGGSDGYGSGRGFGDGYNGYGGGPGGGNFGGSPGYGGGRGGYGGGGPGYGNQGGGYGGGYDNYGGGNYGSGNYNDFGNYNQQPSNYGPMKSGNFGGSRNMGGPYGGGNYGPGGSGGSGGYGGRSRY
In the case of B8, the “target (unweighted spectral count, OC43 Probe II)” value stood at 86 and the “background (unweighted spectral count, no-probe control)” value was 7. In addition, the “target (unweighted spectral count)” value (12 hpi (type n_12_v)) was 28.

B9: HNRNPF (protein, UniProt P52597 1-415, looked up)
Heterogeneous nuclear …: MMLGPEGGEGFVVKLRGLPWSCSVEDVQNFLSDCTIHDGAAGVHFIYTREGRQSGEAFVELGSEDDVKMALKKDRESMGHRYIEVFKSHRTEMDWVLKHSGPNSADSANDGFVRLRGLPFGCTKEEIVQFFSGLEIVPNGITLPVDPEGKITGEAFVQFASQELAEKALGKHKERIGHRYIEVFKSSQEEVRSYSDPPLKFMSVQRPGPYDRPGTARRYIGIVKQAGLERMRPGAYSTGYGGYEEYSGLSDGYGFTTDLFGRDLSYCLSGMYDHRYGDSEFTVQSTTGHCVHMRGLPYKATENDIYNFFSPLNPVRVHIEIGPDGRVTGEADVEFATHEEAVAAMSKDRANMQHRYIELFLNSTTGASNGAYSSQVMQGMGVSAAQATYSGLESQSVSGCYGAGYSGQNSMGGYD
Consider B9, for which the “target (unweighted spectral count, OC43 Probe II)” value is 34 and the “background (unweighted spectral count, no-probe control)” value stood at 4. Moreover, the “target (unweighted spectral count, OC43 Probe II capture)” value (36 hpi, type n_36_v) amounted to 34. The “target (unweighted spectral count)” value (12 hpi (type n_12_v)) is recorded as 13. Besides, the “target (unweighted spectral count)” value (24 hpi (type n_24_v)) came to 27.

B10: KPRP (protein, UniProt Q5T749 1-579, looked up)
Keratinocyte proline-rich …: MCDQQQIQCRLPLQQCCVKGPSFCSSQSPFAQSQVVVQAPCEMQIVDCPASCPVQVCQVSDQAPCQSQTTQVKCQSKTKQVKGQAQCQSKTTQVKGQAASQSQTSSVQSQAPCQSEVSYVQCEASQPVQTCFVECAPVCYTETCYVECPVQNYVPCPAPQPVQMYRGRPAVCQPQGRFSTQCQYQGSYSSCGPQFQSRATCNNYTPQFQLRPSYSSCFPQYRSRTSFSPCVPQCQTQGSYGSFTEQHRSRSTSRCLPPPRRLQLFPRSCSPPRRFEPCSSSYLPLRPSEGFPNYCTPPRRSEPIYNSRCPRRPISSCSQRRGPKCRIEISSPCCPRQVPPQRCPVEIPPIRRRSQSCGPQPSWGASCPELRPHVEPRPLPSFCPPRRLDQCPESPLQRCPPPAPRPRLRPEPCISLEPRPRPLPRQLSEPCLYPEPLPALRPTPRPVPLPRPGQCEIPEPRPCLQPCEHPEPCPRPEPIPLPAPCPSPEPCRETWRSPSPCWGPNPVPYPGDLGCHESSPHRLDTEAPYCGPSSYNQGQESGAGCGPGDVFPERRGQDGHGDQGNAFAGVKGEAKSAYF
On to B10, for which the “target (unweighted spectral count)” value (24 hpi (type n_24_v)) is recorded as 15.
